± gives the uncertainty stated by the source.
B1: Cytoplasmic polyadenylation element-binding protein 2, residues 513 to 575; numbered along this chain, Q7Z5Q1 (parent)
chain: KRVEVKPYVLDDQMCDECQGARCGGKFAPFFCANVTCLQYYCEFCWANIHSRAGREFHKPLVK

Variants of: B1
Test: abundance fitness (aPCA) (normalised: wild type 0, dead -1); higher = more abundant; growth selection in yeast, the domain comes from the species named
Settings: Homo sapiens

In order of rising abundance fitness:
1. KRVEVKPYVLDDQMCDECQLARCGGKFAPFFCANVTCLQYYCEFCWANIHSRAGREFHKPLVK [G20L]  -0.944 ± 0.076
2. KRVEVKPYVLDDQMCDECQGARCGGKFAPFFYANVTCLQYYCEFCWANIHSRAGREFHKPLVK [C32Y]  -0.837 ± 0.11
3. KRVEVKPYVLDDQMCDECQGARCGGKFAPFFMANVTCLQYYCEFCWANIHSRAGREFHKPLVK [C32M]  -0.793 ± 0.074
4. KRVEVKPYVLDDQMCDECQGARCGGKFAPFFQANVTCLQYYCEFCWANIHSRAGREFHKPLVK [C32Q]  -0.742 ± 0.096
5. KRVEVKPYVLDDQMCDECQGARCGGKFAPFFNANVTCLQYYCEFCWANIHSRAGREFHKPLVK [C32N]  -0.724 ± 0.12
6. KRVEVKPYVLDDQMCDECQGARCGGKFAPFFCANVTCPQYYCEFCWANIHSRAGREFHKPLVK [L38P]  -0.706 ± 0.087
7. KRVEVKPYVLDDQMDDECQGARCGGKFAPFFCANVTCLQYYCEFCWANIHSRAGREFHKPLVK [C15D]  -0.691 ± 0.17
8. KRVEVKPYVLDDQMCDERQGARCGGKFAPFFCANVTCLQYYCEFCWANIHSRAGREFHKPLVK [C18R]  -0.641 ± 0.05
9. KRVEVKPYVLDDQMNDECQGARCGGKFAPFFCANVTCLQYYCEFCWANIHSRAGREFHKPLVK [C15N]  -0.592 ± 0.13
10. KRVEVKLYVLDDQMCDECQGARCGGKFAPFFCANVTCLQYYCEFCWANIHSRAGREFHKPLVK [P7L]  -0.579 ± 0.058
11. KRVEVKPYVLDDQMCDECQGARCGGKFAPFFCANVTCLQGYCEFCWANIHSRAGREFHKPLVK [Y40G]  -0.474 ± 0.045
12. KRVEVKPYVLDDQMPDECQGARCGGKFAPFFCANVTCLQYYCEFCWANIHSRAGREFHKPLVK [C15P]  -0.454 ± 0.084
13. KRVEVKPYVLDDQMCDECQKARCGGKFAPFFCANVTCLQYYCEFCWANIHSRAGREFHKPLVK [G20K]  -0.403 ± 0.089
14. KRVEVKPYVLDDQMCDECQGARCGGKFAPFFCANVTCLQTYCEFCWANIHSRAGREFHKPLVK [Y40T]  -0.315 ± 0.068
15. KRVEVKPYVLDDQMCDECQGARCGGKFEPFFCANVTCLQYYCEFCWANIHSRAGREFHKPLVK [A28E]  -0.289 ± 0.053
16. KRVEVKPYVLDDQMCDECQGARLGGKFAPFFCANVTCLQYYCEFCWANIHSRAGREFHKPLVK [C23L]  -0.285 ± 0.041
17. KRVEVKPYVLDDQMCDECQGARCGGKFAPFFCANVTCLQYYCEFCWANIHWRAGREFHKPLVK [S51W]  -0.267 ± 0.054
18. KRVEVKPYVLDDQMCDECQGFRCGGKFAPFFCANVTCLQYYCEFCWANIHSRAGREFHKPLVK [A21F]  -0.23 ± 0.081
19. KRNEVKPYVLDDQMCDECQGARCGGKFAPFFCANVTCLQYYCEFCWANIHSRAGREFHKPLVK [V3N]  -0.207 ± 0.096
20. KRVEVKPYVLDDQMCDECQGARKGGKFAPFFCANVTCLQYYCEFCWANIHSRAGREFHKPLVK [C23K]  -0.194 ± 0.06
21. KRVEVKPYVLDDQMCDECQGARCGGKFAPTFCANVTCLQYYCEFCWANIHSRAGREFHKPLVK [F30T]  -0.188 ± 0.055
22. KRVEVKPYVLDDQMCDECQGARCGMKFAPFFCANVTCLQYYCEFCWANIHSRAGREFHKPLVK [G25M]  -0.127 ± 0.061
23. KRVEVKPYVLDDQMCDECQGARCGGKFAPFFCANVTCLQYYCEFCWANIHSRAGREFHAPLVK [K59A]  -0.118 ± 0.053
24. KRVEVKPYVLDDQMCDECQGARCGGKFAPFFCANDTCLQYYCEFCWANIHSRAGREFHKPLVK [V35D]  -0.091 ± 0.13
25. KRVEVKPYVLDDQMCDECQGARCGRKFAPFFCANVTCLQYYCEFCWANIHSRAGREFHKPLVK [G25R]  -0.081 ± 0.041
26. KRVEVKPYVLDDQMCDECQGARCGQKFAPFFCANVTCLQYYCEFCWANIHSRAGREFHKPLVK [G25Q]  -0.066 ± 0.082
27. KRVEVKPYVLDDQMCDECQGERCGGKFAPFFCANVTCLQYYCEFCWANIHSRAGREFHKPLVK [A21E]  -0.037 ± 0.063
28. KRVEVKPYVLDDQMCDECQGARCGGKFAPLFCANVTCLQYYCEFCWANIHSRAGREFHKPLVK [F30L]  -0.036 ± 0.044
29. KRVEVKPYVLDDQMCDECQGARCGGKFAPFFCANVTCLQYYCEFCWANIHLRAGREFHKPLVK [S51L]  -0.021 ± 0.041
30. KRVEVKPYVLDDQMCDECQGARCGGKFAPFFCANVTCLQYYCEFCWANIHSRASREFHKPLVK [G54S]  -0.009 ± 0.043
31. KRVEVKPYVFDDQMCDECQGARCGGKFAPFFCANVTCLQYYCEFCWANIHSRAGREFHKPLVK [L10F]  0.009 ± 0.073
32. KRVEVKPYVLDDQMCDECQGARCGGKFAPFFCANVTCLQYLCEFCWANIHSRAGREFHKPLVK [Y41L]  0.039 ± 0.039
33. KRVEVKPYVLDDQMCDECQGARCGGKFAPFFCANVTCLQNYCEFCWANIHSRAGREFHKPLVK [Y40N]  0.041 ± 0.084
34. KRVEVKEYVLDDQMCDECQGARCGGKFAPFFCANVTCLQYYCEFCWANIHSRAGREFHKPLVK [P7E]  0.051 ± 0.059
35. KRVEVKPYVLDDQMCDECQGARCGGKFAPFFCANETCLQYYCEFCWANIHSRAGREFHKPLVK [V35E]  0.063 ± 0.062
36. KRVEVKPYVLDDQMCDECQGARCGGKFAPFFCANVTCCQYYCEFCWANIHSRAGREFHKPLVK [L38C]  0.064 ± 0.058
37. KRVEVKPYVLDDQMCDECQGARCGGKFAPFFCANVTCLQYYCEFCWANIHSRAGREFHKPKVK [L61K]  0.065 ± 0.064
38. KRVEVKPYVEDDQMCDECQGARCGGKFAPFFCANVTCLQYYCEFCWANIHSRAGREFHKPLVK [L10E]  0.076 ± 0.047
39. KRVEVKPYVLDDQMCDECQGARCGGKFAPFFCANVTCLQYYCEFCWANIHSRTGREFHKPLVK [A53T]  0.082 ± 0.046
40. KRVEVKPYVLDDQMCDECQGARCGGKFAPFFCANVTCLQYYCEFCWANIHSRAGREFHKPAVK [L61A]  0.092 ± 0.044
41. KRVEVKPYVLDDQMCDECQGARCGGKFAPFFCANPTCLQYYCEFCWANIHSRAGREFHKPLVK [V35P]  0.116 ± 0.053
42. KRVEVKPYVLDDQMCDECQGARCGGKFAPFFCANVTCLQYYCEFCWANIHSRAGREEHKPLVK [F57E]  0.117 ± 0.047
43. KRVEVKPYVLDDQMCDECQGARCGGKFAPFFCANVTCLQYYCEFCWANIHSRAGRESHKPLVK [F57S]  0.129 ± 0.049

From the Human Domainome abundance scans (Beltran et al. 2025)
